This experiment concerns the target T1, EpCAM expressed on human cancer cell lines (H747, HCC827, HCT116) (human (human cancer cell lines), UniProt P16422 24-314).
T1 construct: also called Epithelial cell adhesion molecule; cell expressed EPCAM
T1 sequence: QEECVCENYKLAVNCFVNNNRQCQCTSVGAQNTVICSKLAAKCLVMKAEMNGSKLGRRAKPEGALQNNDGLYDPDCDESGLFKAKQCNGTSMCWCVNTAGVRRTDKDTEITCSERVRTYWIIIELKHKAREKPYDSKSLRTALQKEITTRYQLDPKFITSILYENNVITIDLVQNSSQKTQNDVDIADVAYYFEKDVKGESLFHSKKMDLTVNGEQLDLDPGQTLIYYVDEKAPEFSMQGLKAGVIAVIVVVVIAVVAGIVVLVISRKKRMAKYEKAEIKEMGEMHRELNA
As to the kind of experiment: flow cytometry on H747 cells, MFI fold over background. The method, then: Human cancer cell lines expressing EPCAM were used to assess tumor antigen binding of TriNKETs derived from EPCAM targeting clone MT110 in F4 and F3′ formats. The human cell lines H747, HCC827 and HCT116 were used to assess binding of TriNKETs and mAb to cell expressed EPCAM. TriNKETs or mAb were diluted and incubated with the respective cells. Binding was detected using a fluorophore conjugated anti-human IgG secondary antibody. Cells were analyzed by flow cytometry, binding MFI to cell expressed EPCAM was normalized to human recombinant IgG1 stained controls to obtain fold over background values.
(In general: In flow cytometry, cells or beads pass a laser one at a time.)

B1: A49-F4-TriNKET-MT110 (other)
heavy 1: EVQLLEQSGAELVRPGTSVKISCKASGYAFTNYWLGWVKQRPGHGLEWIGDIFPGSGNIHYNEKFKGKATLTADKSSSTAYMQLSSLTFEDSAVYFCARLRNWDEPMDYWGQGTTVTVSSASTKGPSVFPLAPSSKSTSGGTAALGCLVKDYFPEPVTVSWNSGALTSGVHTFPAVLQSSGLYSLSSVVTVPSSSLGTQTYICNVNHKPSNTKVDKKVEPKSCDKTHTCPPCPAPELLGGPSVFLFPPKPKDTLMISRTPEVTCVVVDVSHEDPEVKFNWYVDGVEVHNAKTKPREEQYNSTYRVVSVLTVLHQDWLNGKEYKCKVSNKALPAPIEKTISKAKGQPREPRVYTLPPCRDELTKNQVSLTCLVKGFYPSDIAVEWESNGQPENNYKTTPPVLVSDGSFTLYSKLTVDKSRWQQGNVFSCSVMHEALHNHYTQKSLSLSPGSGSGGGGSDIQMTQSPSSVSASVGDRVTITCRASQGISSWLAWYQQKPGKAPKLLIYAASSLQSGVPSRFSGSGSGTDFTLTISSLQPEDFATYYCQQGVSFPRTFGCGTKVEIKGGGGSGGGGSGGGGSGGGGSEVQLVESGGGLVKPGGSLRLSCAASGFTFSSYSMNWVRQAPGKCLEWVSSISSSSSYIYYADSVKGRFTISRDNAKNSLYLQMNSLRAEDTAVYYCARGAPMGAAAGWFDPWGQGTLVTVSS
heavy 2: EVQLLEQSGAELVRPGTSVKISCKASGYAFTNYWLGWVKQRPGHGLEWIGDIFPGSGNIHYNEKFKGKATLTADKSSSTAYMQLSSLTFEDSAVYFCARLRNWDEPMDYWGQGTTVTVSSASTKGPSVFPLAPSSKSTSGGTAALGCLVKDYFPEPVTVSWNSGALTSGVHTFPAVLQSSGLYSLSSVVTVPSSSLGTQTYICNVNHKPSNTKVDKKVEPKSCDKTHTCPPCPAPELLGGPSVFLFPPKPKDTLMISRTPEVTCVVVDVSHEDPEVKFNWYVDGVEVHNAKTKPREEQYNSTYRVVSVLTVLHQDWLNGKEYKCKVSNKALPAPIEKTISKAKGQPREPQVCTLPPSRDELTENQVSLTCLVKGFYPSDIAVEWESNGQPENNYKTTPPVLDSDGSFFLYSWLTVDKSRWQQGNVFSCSVMHEALHNHYTQKSLSLSPG
light: ELVMTQSPSSLTVTAGEKVTMSCKSSQSLLNSGNQKNYLTWYQQKPGQPPKLLIYWASTRESGVPDRFTGSGSGTDFTLTISSVQAEDLAVYYCQNDYSYPLTFGAGTKLEIKGRTVAAPSVFIFPPSDEQLKSGTASVVCLLNNFYPREAKVQWKVDNALQSGNSQESVTEQDSKDSTYSLSSTLTLSKADYEKHKVYACEVTHQGLSSPVTKSFNRGEC
notes: also called EPCAM-targeting F4-TriNKET
For the molecule B1, the binding result was “binds”.

B2: parental monoclonal antibody (mAb) targeting EPCAM (clone MT110) (antibody, V domains shown)
VH: VQLLEQSGAELVRPGTSVKISCKASGYAFTNYWLGWVKQRPGHGLEWIGDIFPGSGNIHYNEKFKGKATLTADKSSSTAYMQLSSLTFEDSAVYFCARLRNWDEPMDYWGQGTTVTVSS
VL: ELVMTQSPSSLTVTAGEKVTMSCKSSQSLLNSGNQKNYLTWYQQKPGQPPKLLIYWASTRESGVPDRFTGSGSGTDFTLTISSVQAEDLAVYYCQNDYSYPLTFGAGTKLEIKG
notes: detected with an anti-human IgG secondary antibody; also called parental mAb; Solitomab (MT110)
On to B2, for which the binding result was “binds”.
